# Laboratory results from article PMC9233744.
# No end group written: not given here.
# Legend:
# [1] = target: Rgg144 (recombinant, Streptococcus pneumoniae D39, SPD_0144) (Streptococcus pneumoniae D39); assay: SEC
# [2] = target: Rgg144 (recombinant, Streptococcus pneumoniae D39, SPD_0144) (Streptococcus pneumoniae D39); assay: fluorescence polarisation
Molecule,Kd [2] [µM],also measured
"Rgg144 (recombinant, Streptococcus pneumoniae D39, SPD_0144) (natural protein)",–,stoichiometry N [1]: 2
"SEWVAVIPFLTNL (also: FITC label, position not given here) [FITC-labeled SHP144 I18A]",> 100,–
"SEWVIVIPFLTNL (also: FITC label, position not given here) [FITC-labeled SHP144 (SHP144-C13), wild type]",6.6,–
"SEWVIVIPFLANL (also: FITC label, position not given here) [FITC-labeled SHP144 T24A]",3.3,–
"SEAVIVIPFLTNL (also: FITC label, position not given here) [FITC-labeled SHP144 W16A]",50,–
"SEWVIVIPALTNL (also: FITC label, position not given here) [FITC-labeled SHP144 F22A]",7.1,–
"SEWVIAIPFLTNL (also: FITC label, position not given here) [FITC-labeled SHP144 V19A]",4,–
"SEWVIVIPFATNL (also: FITC label, position not given here) [FITC-labeled SHP144 L23A]",4.3,–
"SEWVIVAPFLTNL (also: FITC label, position not given here) [FITC-labeled SHP144 I20A]",23.5,–
"AEWVIVIPFLTNL (also: FITC label, position not given here) [FITC-labeled SHP144 S14A]",8.1,–
"SEWAIVIPFLTNL (also: FITC label, position not given here) [FITC-labeled SHP144 V17A]",9.7,–
"SEWVIVIPFLTAL (also: FITC label, position not given here) [FITC-labeled SHP144 N25A]",3.3,–
"SEWVIVIPFLTNL [unlabeled SHP144 (13-residue synthetic peptide, wild type)]",–,IC50 [2]: 86.8 µM
"SAWVIVIPFLTNL (also: FITC label, position not given here) [FITC-labeled SHP144 E15A]",3.3,–
"SEWVIVIAFLTNL (also: FITC label, position not given here) [FITC-labeled SHP144 P21A]",1.7,–
"SEWVIVIPFLTNA (also: FITC label, position not given here) [FITC-labeled SHP144 L26A]",3.4,–
